Legend:
[1] = molecular target: T1, Human IL-4Rα overexpressed on HEK293T cells (Homo sapiens (Human)., UniProt P24394); assay: flow cytometry on cells; human IL-4Rα-overexpressing HEK293T cells, 2x10^5 cells/tube in PBS; seven-point curve; Dup-scFv detected with anti-6xHIS antibody and Alexa Fluor-647 anti-mouse IgG, dupilumab with Alexa Fluor-647 anti-human IgG; fitted in GraphPad Prism 8; details: one partner purified
T1 construct: IL-4 receptor alpha (IL-4Rα), human, overexpressed on HEK293T cells; also called IL-4Ra; IL-4 receptor alpha; source: HEK293T, lentiviral transduced (IL4R-EGFP), on cells

Biotinylated IL-4Rα = molecular target: T2, Biotinylated IL-4Rα (Homo sapiens (assumed), UniProt P24394, biotin); assay: SPR; iMSPR-ProX; biotinylated IL-4Rα immobilised on the sensor chip (A-Dex100) at 169.7 RU; Dup-scFv at 1.56-100 nM; regeneration with 10 mM glycine-HCl pH 1.5; 1:1 kinetic binding model; details: both partners purified
T2 construct: IL-4 receptor alpha (IL-4Rα); Probably a soluble extracellular construct of the human receptor (surmised); also called IL-4Ra; immobilized IL-4Rα

[2] = molecular target: T1, Human IL-4Rα overexpressed on HEK293T …; assay: cell-based or functional assay

T1 sequence (P24394 26-825): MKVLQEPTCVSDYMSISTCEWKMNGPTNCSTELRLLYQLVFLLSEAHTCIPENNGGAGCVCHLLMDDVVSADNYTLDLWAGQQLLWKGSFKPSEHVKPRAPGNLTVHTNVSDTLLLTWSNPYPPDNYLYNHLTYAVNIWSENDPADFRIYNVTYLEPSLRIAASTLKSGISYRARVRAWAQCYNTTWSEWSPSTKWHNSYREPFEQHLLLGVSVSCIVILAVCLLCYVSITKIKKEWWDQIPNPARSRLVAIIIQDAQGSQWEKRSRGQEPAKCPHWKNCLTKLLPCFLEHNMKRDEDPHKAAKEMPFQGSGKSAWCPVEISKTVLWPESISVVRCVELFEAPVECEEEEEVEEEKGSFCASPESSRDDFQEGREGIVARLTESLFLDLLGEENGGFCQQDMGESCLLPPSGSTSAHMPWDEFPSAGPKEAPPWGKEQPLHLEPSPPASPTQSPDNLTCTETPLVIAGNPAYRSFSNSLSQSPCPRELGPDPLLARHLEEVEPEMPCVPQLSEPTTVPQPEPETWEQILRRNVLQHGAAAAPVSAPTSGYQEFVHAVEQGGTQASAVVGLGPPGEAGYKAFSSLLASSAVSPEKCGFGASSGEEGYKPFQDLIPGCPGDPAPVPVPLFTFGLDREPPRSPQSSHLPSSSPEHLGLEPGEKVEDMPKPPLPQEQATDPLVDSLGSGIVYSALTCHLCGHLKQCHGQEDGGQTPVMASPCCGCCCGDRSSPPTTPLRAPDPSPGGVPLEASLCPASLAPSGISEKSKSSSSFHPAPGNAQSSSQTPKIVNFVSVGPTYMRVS
T2 sequence (P24394 26-825): as above

B1: Dup-scFv with HDEL (single-chain variable fragment of dupilumab produced by Nicotiana benthamiana) (scFv, V domains shown)
VH: EVQLVESGGGLEQPGGSLRLSCAGSGFTFRDYAMTWVRQAPGKGLEWVSSISGSGGNTYYADSVKGRFTISRDNSKNTLYLQMNSLRAEDTAVYYCAKDRLSITIRPRYYGLDVWGQGTTVTVSS
VL: DIVMTQSPLSLPVTPGEPASISCRSSQSLLYSIGYNYLDWYLQKSGQSPQLLIYLGSNRASGVPDRFSGSGSGTDFTLKISRVEAEDVGFYYCMQALQTPYTFGQGTKLEIK
notes: VH region of dupilumab; linker, printed as (GGGGS)4 / 4 x G4S; VL region of dupilumab; The form without HDEL is GenBank PP711327; also called dupilumab-scFv; source: N. benthamiana leaves, Agrobacterium-mediated transient expression with p19, purified (Ni-NTA); not shown: His6, C-terminal, kept
B1 was tested, and the EC50 [1] was 17.3 nM, the Kd (Biotinylated IL-4Rα) was 0.476 nM and the “IL-4-induced CCL26 mRNA (qPCR; more than 3000-fold with IL-4 alone) in HNECs with Dup-scFv 20 μg/ml on the apical side” value [2] was 1790 fold.

B2: Dupilumab (antibody, V domains shown)
VH: B1 VH
VL: B1 VL
notes: heavy chain of dupilumab (IgG4); light chain of dupilumab; IgG4 subclass monoclonal antibody (developed by Regeneron/Sanofi)
B2 was tested, and the EC50 [1] was 1.02 nM, the Kd (Biotinylated IL-4Rα) was 0.133 nM and the “IL-4-induced CCL26 mRNA (qPCR; more than 3000-fold with IL-4 alone) in HNECs with dupilumab 100 μg/ml on the apical side” value [2] was 2200 fold.

Source: paper PMC11196582 (Scientific Reports, 2024)
